From the nanobody polyreactivity screen of Harvey et al. (2022)

Experiment: yeast display, Sf9 membrane polyspecificity reagent, FACS + sequencing; frameworks hold sequencing errors
Outline: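 Sorting gates, low and high (top ~1%), were placed on anti-HA fluorescence to track expression and on streptavidin fluorescence to track reagent binding. A clone's polyreactivity label is taken from the gate it came out of. The reagent was 10% biotinylated, detergent-solubilized Sf9 membrane, applied for 1 hour at 4 °C to galactose-induced yeast display cells.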

Q: With “QVQLVESGGGLVQAGGILRLSCASSGRIFGVNAMGWYRQATGKERELVATISSGGSTYYADSVKGRFTISRDNAKNTVYLQLNSLKPEDTAVYYCAADTRRYYLARYRTDYWGQGTQVTVSS” as the sequence, how does the “polyreactivity (PSR sort gate)” value read?
A: Its value is “high polyreactivity”.

Q: Which “polyreactivity (PSR sort gate)” value does the source give for “QVQLVESGGGLVQAGGILRLSCASSGRTFKSYTMGWYRQAPGKERELVASISVSGGRTYYADSVKGRFTISRDNAKNTVYLQMNSLKPEDTAVYYCAAYYVHYRPVRGYDYWGQGTEVTVSS” here?
A: Its value is “high polyreactivity”.

Q: With “QVQLVESGGGLVQAGGILRLSSAASGFIFKANAMGWSRQAPGKERELVAVITRRGGSTYYADSVKGSFTISRDNAKNTVYLQMNSLKREDTAVYYSAKEGSARYGPSDAYDYWGQGTQVTVSS” as the sequence, how does the “polyreactivity (PSR sort gate)” value read?
A: The value was “high polyreactivity”.

Q: For “QVQLVESGGGLVQAGGILRLSSAASGFTFYLYTMGWYTPAPGKERELVAAISRSGDRTYYADSVKGRFTISRDNAKNTVYLQMNSLKPEDTAVYYCNAYTSYPNTMDYWGQGTQVTVSS”, which “polyreactivity (PSR sort gate)” value is on record?
A: Its value is “high polyreactivity”.

Q: With “QVQLVESGGGLVQAGGILRLTSAGSGFNYYPYDMGWSRQAPGKERELVAAITQSGGSTYYADSVKGRFTISRDNAKITVYLQMISLKPEDTAVYSCNADTRGEYTYVSWYDYWGQGSQVTVSS” as the sequence, how does the “polyreactivity (PSR sort gate)” value read?
A: Its value is “low polyreactivity”.

Q: Which “polyreactivity (PSR sort gate)” value does the source give for “QVQLVESGGGLVQAGGILSLSCAASGFTFTVYDMGWYRQAPGKERELVAVITSGDGTYYADSVKGRFTISRDNAKNTVYLQMNSLKPEDTAVYYCNARRYSSFRYRFAYDYWGQGTQVTVTS” here?
A: The value was “low polyreactivity”.

Q: Which “polyreactivity (PSR sort gate)” value does the source give for “QVQLVESGGGLVQAGGNLRLSCAASGLIFGGYAMGWYRPAPGKERELVAAISRTGGRTYYADSVKVRFTISRDNAKNTVYLQMNSLKPEDTAVYYCATKRWWVRYDYWGQGTQVTVSS” here?
A: Its value is “high polyreactivity”.

Q: With “QVQLVESGGGLVQAGGRHPVSCAASGRTIAYNAKGLYRQATGKERELVASITSGGSTNYADSVKGRFTISRDYAKNTVYLQMNSLKQEHTADYYFNKDGKYHRVLFEYWGQGTQVTVSS” as the sequence, how does the “polyreactivity (PSR sort gate)” value read?
A: Its value is “low polyreactivity”.

Q: Which “polyreactivity (PSR sort gate)” value does the source give for “QVQLVESGGGLVQAGGRLLLSCAASGGTFYRNAMGWYRLAPGKERELVASISRTGGSTYYADSVKGRFTISRDNAKNTVYLQMNSMKPEDTAVYYCNALPYSRGRWRPLSAVDYWGQGTQVTVSS” here?
A: The value was “high polyreactivity”.

Q: With “QVQLVESGGGLVQAGGRLRFSCAASGSTFRPNAMGWYRQAPGNERELVAAITRPGGSTFYADSVKGRFTISRDYAKHTVYLQMNSLKPEDTAVYYCATRQRVDLAPLARYGYWGQGTQVTVSS” as the sequence, how does the “polyreactivity (PSR sort gate)” value read?
A: Its value is “low polyreactivity”.

Q: With “QVQLVESGGGLVQAGGRLRLICAASASNFAGYDKGWYRQAPGKERELVAAITSGGDTYYADSVKGRFTISRDNAKNTGYLQMNSLKPEDTAVYYCNKDYILARYGGGRDYWGQGTQVTVSS” as the sequence, how does the “polyreactivity (PSR sort gate)” value read?
A: Its value is “low polyreactivity”.

Q: With “QVQLVESGGGLVQAGGRLRLRCAACGFTFARYAMGRSSQAPGKERELLAAITWSAGSTYYADSVKGRFTISRDTGKNTVFLQMTRLKPEDTAVYYCNALVIARNIEMDYWGQGTQVTVSS” as the sequence, how does the “polyreactivity (PSR sort gate)” value read?
A: Its value is “high polyreactivity”.

Q: With “QVQLVESGGGLVQAGGRLRLSCAASAFTFYYYAMGWYRPAPGKERELVAAISWSGGSTYYADSVKGRFTFSRDNAKNTVYLQMNSLKPEDTAVYYCAADVYKQYGYYYWGQGTQVTVSS” as the sequence, how does the “polyreactivity (PSR sort gate)” value read?
A: Its value is “high polyreactivity”.

Q: With “QVQLVESGGGLVQAGGRLRLSCAASGFIFAYYAMGWYRQAPGKERELVAAITIDGSTNYADSVKGRFTISRDNAKNTVYLQMNSLKPEDTAVYYCAAADHPPVCYGYWGQGTQVTVSS” as the sequence, how does the “polyreactivity (PSR sort gate)” value read?
A: The value was “low polyreactivity”.

Q: With “QVQLVESGGGLVQAGGRLRLSCAASGFIFIRNAMGWYRQAPGKERELVAAITRSGGRTYYADSVKGRFTISRDKAKNTVYLQMNSLKPEDTAVYYCAADADAAWGQGTQVTVSS” as the sequence, how does the “polyreactivity (PSR sort gate)” value read?
A: The value was “high polyreactivity”.

Q: With “QVQLVESGGGLVQAGGRLRLSCAASGFIFRAYAMGWYRQAPGKERELVAAISRGGGTYYADSVKGRFTISRDNAKNTVYLQMNSLKPEDTAVYYCAVDLLRRGFTTVVTTYDYWGQGTQVTVSS” as the sequence, how does the “polyreactivity (PSR sort gate)” value read?
A: The value was “high polyreactivity”.

Q: With “QVQLVESGGGLVQAGGRLRLSCAASGFIFSLYAMGWYRQAPGKERELVAGISESGGSTYYADSVKGRFTISRDNAKNTVYLQMNSLKPEDTAVYYCNADDTVYFIKAGDYWGQGTQVTVSS” as the sequence, how does the “polyreactivity (PSR sort gate)” value read?
A: The value was “high polyreactivity”.

Q: For “QVQLVESGGGLVQAGGRLRLSCAASGFIFSYYTMGCYRQAPGKERELVAAIRSSGGSTYADSVKGRFTISRDNAKNTVYLQMNSLNPEDTAVYYGAGGYYWNEPLYWYGDFDYWGQGTQVTVSS”, which “polyreactivity (PSR sort gate)” value is on record?
A: The value was “high polyreactivity”.

Q: With “QVQLVESGGGLVQAGGRLRLSCAASGFTFKLYAMGWYRQAPGKERELVASISRSGGSTFYADSVKGRFTISRDTAKNTGYLQMNSLKPEDTAVYYCATGWYYSPYNYWGQGTQVTVSS” as the sequence, how does the “polyreactivity (PSR sort gate)” value read?
A: The value was “high polyreactivity”.

Q: For “QVQLVESGGGLVQAGGRLRLSCAASGFTFYYNDMGWYRQAPGKERELVAAITWSGGSTYYADSVKGRFTISRDNAKNTVYLQMNSLKPEDTAVYYCNARYWVHGYRYYYWGQGTQVTVSS”, which “polyreactivity (PSR sort gate)” value is on record?
A: Its value is “high polyreactivity”.

Q: For “QVQLVESGGGLVQAGGRLRLSCAASGGIFGSYAMGWYRQAPGKERELVADITQSGGRTRYADSVKGRFTISRDNAKNTVYLQMNSLKPEDTAVYYCNAQDVDSGDDYDYWGQGTQVTVSS”, which “polyreactivity (PSR sort gate)” value is on record?
A: The value was “low polyreactivity”.

Q: For “QVQLVESGGGLVQAGGRLRLSCAASGGIFSTYTRGWYRQEPGKERELVAAITTGNSTYYADSVKGRFTISRDNAKNTVYLQMNSLKPEDTAVYYCAADTIGYHYWYDYWGQGTQVTVSS”, which “polyreactivity (PSR sort gate)” value is on record?
A: Its value is “low polyreactivity”.

Q: For “QVQLVESGGGLVQAGGRLRLSCAASGGTFVPYAMGWYRQAPGTERELVARISKRGGTTYYADSVKGRFTISRDTAKNTVYLQMNSVKPEDTAVYYCGAVLPARGYYWGEGTQVTVSS”, which “polyreactivity (PSR sort gate)” value is on record?
A: The value was “high polyreactivity”.

Q: With “QVQLVESGGGLVQAGGRLRLSCAASGGTFYTYFMGWYRQAPGKERELVAAISQSGGRTYYADSVKGRFTISRDNAKNTVYLQMISLKPEDTAVYYCAAPDESYSFWRLDGLDYWGQGTQVTVSS” as the sequence, how does the “polyreactivity (PSR sort gate)” value read?
A: The value was “high polyreactivity”.

Q: For “QVQLVESGGGLVQAGGRLRLSCAASGIIFASNAMGWYCQAPGKERELVAAISRSGGRTYYADSVKGRFTISRDNAKNTVYLQMNSLKPEDTAVYYCAILARSGTLPYYYWGQGTQVNVSS”, which “polyreactivity (PSR sort gate)” value is on record?
A: Its value is “high polyreactivity”.

Q: For “QVQLVESGGGLVQAGGRLRLSCAASGIIFAWYAMGWSRQAPGKERELVAAITSGGSTYYADSVKGRFTISRDNAKNTVYLQMNSLKPDDTAVYYCAASDASTGYLGRHYYWGPGTQVTVSS”, which “polyreactivity (PSR sort gate)” value is on record?
A: The value was “high polyreactivity”.

Q: Which “polyreactivity (PSR sort gate)” value does the source give for “QVQLVESGGGLVQAGGRLRLSCAASGIIFGGYSMGWYRQAPGKERELVADITWSGGSTTYADSVKGRFTISRDNAKNTVYLQMNSLKPEDTAVYYCAAEDYYIYREPYDYWGQGTQVTVSS” here?
A: The value was “low polyreactivity”.

Q: For “QVQLVESGGGLVQAGGRLRLSCAASGIIFRVYTMGWYRPEPGKERELVATISLGVARTYYADSVKGRFTISRDNAKYTVYLQMNSLKPEDTAVYYCAKRRGGQGNYWGQGTQVTVSS”, which “polyreactivity (PSR sort gate)” value is on record?
A: The value was “high polyreactivity”.

Q: Which “polyreactivity (PSR sort gate)” value does the source give for “QVQLVESGGGLVQAGGRLRLSCAASGIIFVVNDMGWYRQAPGKEWELVADISDSGGSTNYADSVKGRFTISRDKAKNTVYLQMNSLKPEDTAVYYCAADSADPTEYDYWGQGTQVTVSS” here?
A: The value was “low polyreactivity”.

Q: Which “polyreactivity (PSR sort gate)” value does the source give for “QVQLVESGGGLVQAGGRLRLSCAASGITFPGNVMGWSRHAPGKERELVAAISSTGSTNYADSVKGRFTISRDNAKNTVYLQMNSLKPEDTAVYYCAARFWYDYRHYDYWGQGTQVTVSS” here?
A: Its value is “low polyreactivity”.

Q: With “QVQLVESGGGLVQAGGRLRLSCAASGITFRTNTMGWYRPAPGKERELVASISSGTRTNYADSVKGRFTISRDNAKNTVYLQLNSLKPVDTAVYYCAAGPPRTRYRNARFDYWGQGTQVTVSS” as the sequence, how does the “polyreactivity (PSR sort gate)” value read?
A: Its value is “high polyreactivity”.

Q: With “QVQLVESGGGLVQAGGRLRLSCAASGIVFKRYAKGWYRQAPGKEREFVATISYTGGRTYYADSVKGRFTISRDTAKNTVYLQMNSLKPEDTAVYYCATLYRSSKHQPLDYWGQGTQVTVSS” as the sequence, how does the “polyreactivity (PSR sort gate)” value read?
A: Its value is “high polyreactivity”.

Q: For “QVQLVESGGGLVQAGGRLRLSCAASGLICNANPMGWYRQAPGKEREFVAAITTSGGKTYYADSVKGRFTISRDNAKYTVYLQMNSLKPEDTAVYYCAATDLYFWYPYWFAFEYDYWGLGTQVTVSS”, which “polyreactivity (PSR sort gate)” value is on record?
A: Its value is “high polyreactivity”.

Q: For “QVQLVESGGGLVQAGGRLRLSCAASGLIFYKYAMGWYRQAPGKERELVAAISSRTGSTSYADSVKGRFTISRDNAKNTVYLQMNSLKPEDTAVYYCAARPRYNEYGYWGQGTQVTVSS”, which “polyreactivity (PSR sort gate)” value is on record?
A: The value was “high polyreactivity”.

Q: For “QVQLVESGGGLVQAGGRLRLSCAASGLTFEYNAMGWYRQAPGKERELVASISSGGGTNYADSVKGRFTISRDNAKNTVYLQMNSLKPVDTAVYYCATDNYDWSCWAFRGYWYDYWGQGTQVTVSS”, which “polyreactivity (PSR sort gate)” value is on record?
A: Its value is “low polyreactivity”.

Q: For “QVQLVESGGGLVQAGGRLRLSCAASGLTFKSYTMGLYRQAPGKERELVATISGSGTRTYYADSVKGRYTISRDNAKNTVFLQMNSLKPEDTAVYYCARVILYNNYFRYSGYRYDYWGQGTQGTVSS”, which “polyreactivity (PSR sort gate)” value is on record?
A: Its value is “high polyreactivity”.

Q: Which “polyreactivity (PSR sort gate)” value does the source give for “QVQLVESGGGLVQAGGRLRLSCAASGLTFPPNAMGWYRQAPGKERELVADSGGSTNYADSVKGRFTISRDNAKNTVYLQMNSLKPEDTAVYYCAAPPYSDGQWDDYWGQGTQVTVSS” here?
A: Its value is “low polyreactivity”.

Q: For “QVQLVESGGGLVQAGGRLRLSCAASGLTFPRNAMGWYRQAPGKERELVAAISWRGSSTYYADSVKGRFTISRDNAKNTVFLQMNSLQPEDTAVYYCAASYAGGQHDYWGQGTQVTVSS”, which “polyreactivity (PSR sort gate)” value is on record?
A: The value was “high polyreactivity”.

Q: With “QVQLVESGGGLVQAGGRLRLSCAASGLTFTYNAMGWYRQEPGKERELVAAITSGGNTNYADSVKGRFTISRDNAKNTVYLQMNSLKPEDTAVYYCATDRKNGISGRYGYWGQGTQVTVSS” as the sequence, how does the “polyreactivity (PSR sort gate)” value read?
A: The value was “low polyreactivity”.

Q: Which “polyreactivity (PSR sort gate)” value does the source give for “QVQLVESGGGLVQAGGRLRLSCAASGRICIIYALGWYRQAPGKEREFVAAITSSGGSTYYADSVKGRFTISRDNAKNTVYLQMNSLTPEDTAVYYCAARVTKLRTSSLRGYWGQGTQVTVSS” here?
A: The value was “high polyreactivity”.

Q: Which “polyreactivity (PSR sort gate)” value does the source give for “QVQLVESGGGLVQAGGRLRLSCAASGRIFAYYAMGWYRQAPGKERELVAGISQRGSRTYYADSVKGRFTNSRDNAKNTVYLQMNSLTPEDTAVYYCAARDRRTVTMDYWGQGTQVTVSS” here?
A: Its value is “high polyreactivity”.
